According to patent publication US7485771B2, “Polypeptides and polynucleotides relating to the α- and β-subunits of glutamate dehydrogenases and methods of use” (University of Florida Research Foundation, Inc., priority 1995, dated 2009):
Where two headings read alike, the source gives them in different places.

What was measured:
[1] = target: T1, Chlorella sorokiniana chloroplastic NADP-specific glutamate dehydrogenase (NADP-GDH) β-homohexamer, native (mature β-subunit SEQ ID NO. 26) (Chlorella sorokiniana, UniProt P28998, E496R/E82D/G270P/L83V); details: β-homohexamer purified from Chlorella cells (catabolic form), non-allosteric; read-out: ammonium Km; cited from earlier work
T1 construct: endogenous in cells; host or cells: Chlorella sorokiniana (UTEX-1230; 3B2NA), cells cultured in 1 mM or 29 mM ammonium medium; enzyme purified from the cells
T1 sequence (P28998 49-523 E82D/L83V/G270P/E496R): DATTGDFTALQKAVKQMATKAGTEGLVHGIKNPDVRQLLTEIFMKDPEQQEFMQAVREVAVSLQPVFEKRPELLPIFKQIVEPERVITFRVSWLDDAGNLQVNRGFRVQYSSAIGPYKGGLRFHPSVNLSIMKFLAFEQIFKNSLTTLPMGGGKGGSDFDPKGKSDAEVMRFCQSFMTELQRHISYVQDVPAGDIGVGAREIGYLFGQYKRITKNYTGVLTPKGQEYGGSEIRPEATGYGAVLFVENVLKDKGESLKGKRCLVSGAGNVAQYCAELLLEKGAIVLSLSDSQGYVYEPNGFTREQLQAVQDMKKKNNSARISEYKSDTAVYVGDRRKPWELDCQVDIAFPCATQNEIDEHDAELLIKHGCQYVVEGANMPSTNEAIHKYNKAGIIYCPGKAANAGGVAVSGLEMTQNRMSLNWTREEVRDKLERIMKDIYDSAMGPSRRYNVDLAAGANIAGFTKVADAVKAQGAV

[2] = target: T2, Chlorella sorokiniana chloroplastic NADP-specific glutamate dehydrogenase (NADP-GDH) α-homohexamer, native (mature α-subunit SEQ ID NO. 24) (Chlorella sorokiniana, UniProt P28998, E496R/E82D/G270P/L83V); test: Km values, aminating reaction, α-homohexameric isoenzyme; format: biochemical; details: NH4^+ range, depending on the NADPH concentration (b9)
T2 construct: endogenous in cells; host or cells: Chlorella sorokiniana (UTEX-1230; 3B2NA), cultured in 29 mM ammonium medium; enzyme purified from the cells
T2 sequence (P28998 with tags, fused parts or gaps E82D/L83V/G270P/E496R): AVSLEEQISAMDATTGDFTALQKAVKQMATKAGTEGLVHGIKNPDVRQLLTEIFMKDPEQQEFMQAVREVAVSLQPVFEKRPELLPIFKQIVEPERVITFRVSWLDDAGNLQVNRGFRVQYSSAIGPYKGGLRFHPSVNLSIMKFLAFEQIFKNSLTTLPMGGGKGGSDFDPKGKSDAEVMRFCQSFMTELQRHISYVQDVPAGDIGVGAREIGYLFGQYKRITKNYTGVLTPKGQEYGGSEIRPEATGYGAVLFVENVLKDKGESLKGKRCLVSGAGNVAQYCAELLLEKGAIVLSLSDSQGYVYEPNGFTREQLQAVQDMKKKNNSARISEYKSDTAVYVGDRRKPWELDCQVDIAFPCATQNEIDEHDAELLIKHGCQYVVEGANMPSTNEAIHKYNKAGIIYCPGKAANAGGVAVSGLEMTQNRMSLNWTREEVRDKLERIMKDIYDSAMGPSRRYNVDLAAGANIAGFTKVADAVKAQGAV
Excerpt: (§1) The chloroplastic glutamate dehydrogenase α- and β-isoenzymes used in the following experiments are naturally produced by an organism characterized as Chlorella sorokiniana.
(§2) C. sorokiniana culture conditions. For kinetic characterization in both the aminating and deaminating directions, the α- and β-holoenzymes were purified from cells that were accumulating only one form of homohexameric GDH isoenzyme.
(§3) The C. sorokiniana cells (UTEX-1230, University of Texas algal culture collection; 3B2NA, Robert R. Schmidt, University of Florida, Microbiology Cell Science Department) were cultured autotrophically as previously described by Prunkard et al., supra in a modified basal salts medium. […]
(§4) For preparative nondenaturing PAGE, a 3 cm tall 7% acrylamide (w/v, 28 acrylamide: 0.735 bis-acrylamide, pH 8.8) resolving gel, and a 2 cm tall 2% acrylamide (w/v, 1.6 acrylamide: 0.4 bis-acrylamide, pH 6.6) stacking gel were cast in the 28 mm ID gel tube of the Model 491 Prep Cell. […] The enzyme in the pooled fractions in 10 mM KPO4 (pH 6.2), 0.1 mM NADP^+ was concentrated by Diaflow ultrafiltration to 1 mg/mL as determined by the method of Bradford, using BSA as a standard. […] The purity of the preparation was determined by silver-staining to visualize proteins resolved by 10% (w/v) Tris-Tricine SDS-PAGE (Schagger, H., G. von Jagow [1987] Anal. Biochem. 166:368-379). […]

[3] = target: T1, Chlorella sorokiniana chloroplastic NADP-specific glutamate dehydrogenase (NADP-GDH) β-homohexamer, native (mature β-subunit SEQ ID NO. 26); test: Km values, aminating reaction, β-homohexameric isoenzyme; format: biochemical
Excerpt: as §1, §2, §3
(§5) The NADP-GDH β-isoenzyme was purified from a mixture of cells cultured for 240 minutes in 1 mM ammonium medium (14 g), 90 minutes in 1 mM ammonium medium (6 g), and for 20, 40, 60, and 80 minutes in 29 mM ammonium medium (1 g/time point) according to Bascomb and Schmidt, supra. […] The NADP-GDH in the pooled fractions was concentrated via Diaflow ultrafiltration to 2 mg/ml protein, as determined by the method of Bradford (Bradford, M. M. [1976] Anal. Biochem. 72:248-254), and stored at 4° C. until further use. After resolution of the proteins by 8% (w/v) Tris-Tricine SDS-PAGE, the purity of the preparation was determined by silver staining. […]

[4] = substrate: NC(=O)c1ccc[n+]([C@@H]2O[C@H](COP(=O)([O-])OP(=O)(O)OC[C@H]3O[C@@H](n4cnc5c(N)ncnc54)[C@H](OP(=O)(O)O)[C@@H]3O)[C@@H](O)[C@H]2O)c1; test: Km values, deaminating reaction, β-homohexameric isoenzyme; format: biochemical, Chlorella sorokiniana; details: other: β-homohexamer, 38.5 °C
Excerpt: as §1, §2, §3, §5

[5] = substrate: N[C@@H](CCC(=O)O)C(=O)O; test: as above; format: biochemical, Chlorella sorokiniana; details: other: β-homohexamer, 38.5 °C
Excerpt: as §1, §2, §3, §5

[6] = substrate: O=C(O)CCC(=O)C(=O)O; test: purified protein, by the assay type; details: other: β-homohexamer, aminating reaction; 38.5 °C
[7] = substrate: NC(=O)C1=CN([C@@H]2O[C@H](COP(=O)(O)OP(=O)(O)OC[C@H]3O[C@@H](n4cnc5c(N)ncnc54)[C@H](OP(=O)(O)O)[C@@H]3O)[C@@H](O)[C@H]2O)C=CC1; test: Km values, aminating reaction, β-homohexameric isoenzyme; format: biochemical, Chlorella sorokiniana; details: other: β-homohexamer, 38.5 °C
Excerpt: as §1, §2, §3, §5

[8] = substrate: NC(=O)c1ccc[n+]([C@@H]2O[C@H](COP(=O)([O-])OP(=O)(O)OC[C@H]3O[C@@H](n4cnc5c(N)ncnc54)[C@H](OP(=O)(O)O)[C@@H]3O)[C@@H](O)[C@H]2O)c1; test: Km values, deaminating reaction, α-homohexameric isoenzyme; format: biochemical, Chlorella sorokiniana; details: other: α-homohexamer, 38.5 °C
Excerpt: as §1, §2, §3, §4

[9] = substrate: N[C@@H](CCC(=O)O)C(=O)O; test: as above; format: biochemical, Chlorella sorokiniana; details: other: α-homohexamer, 38.5 °C
Excerpt: as §1, §2, §3, §4

[10] = substrate: NC(=O)C1=CN([C@@H]2O[C@H](COP(=O)(O)OP(=O)(O)OC[C@H]3O[C@@H](n4cnc5c(N)ncnc54)[C@H](OP(=O)(O)O)[C@@H]3O)[C@@H](O)[C@H]2O)C=CC1; test: Km values, aminating reaction, α-homohexameric isoenzyme; format: biochemical, Chlorella sorokiniana; details: other: α-homohexamer, 38.5 °C
Excerpt: as §1, §2, §3, §4

**Q.** Which results are given for `N` [NH4^+, ammonium]?
**A.** Km [1]: ~75 mM; Km [2]: 0.02 to 3.5 mM; Km [3]: 77 mM

B1: Chlorella sorokiniana chloroplastic NADP-specific glutamate dehydrogenase (NADP-GDH) β-homohexamer, native (mature β-subunit SEQ ID NO. 26) (Chlorella … (protein)
chain: DATTGDFTALQKAVKQMATKAGTEGLVHGIKNPDVRQLLTEIFMKDPEQQEFMQAVREVAVSLQPVFEKRPELLPIFKQIVEPERVITFRVSWLDDAGNLQVNRGFRVQYSSAIGPYKGGLRFHPSVNLSIMKFLAFEQIFKNSLTTLPMGGGKGGSDFDPKGKSDAEVMRFCQSFMTELQRHISYVQDVPAGDIGVGAREIGYLFGQYKRITKNYTGVLTPKGQEYGGSEIRPEATGYGAVLFVENVLKDKGESLKGKRCLVSGAGNVAQYCAELLLEKGAIVLSLSDSQGYVYEPNGFTREQLQAVQDMKKKNNSARISEYKSDTAVYVGDRRKPWELDCQVDIAFPCATQNEIDEHDAELLIKHGCQYVVEGANMPSTNEAIHKYNKAGIIYCPGKAANAGGVAVSGLEMTQNRMSLNWTREEVRDKLERIMKDIYDSAMGPSRRYNVDLAAGANIAGFTKVADAVKAQGAV
notes: endogenous in cells; host or cells: Chlorella sorokiniana (UTEX-1230; 3B2NA), cells cultured in 1 mM or 29 mM ammonium medium; enzyme purified from the cells
**Q.** Which Km [4] does the source give for B1 here?
**A.** The Km was 0.04 mM.

**Q.** What about the Km [5] of the same molecule?
**A.** Its Km is 32.3 mM.

**Q.** And the Km [6]?
**A.** Its Km is 12 mM.

**Q.** And the Km [7]?
**A.** The Km was 0.14 mM.

B2: Chlorella sorokiniana chloroplastic NADP-specific glutamate dehydrogenase (NADP-GDH) α-homohexamer, native (mature α-subunit SEQ ID NO. 24) (Chlorella … (protein)
chain: AVSLEEQISAMDATTGDFTALQKAVKQMATKAGTEGLVHGIKNPDVRQLLTEIFMKDPEQQEFMQAVREVAVSLQPVFEKRPELLPIFKQIVEPERVITFRVSWLDDAGNLQVNRGFRVQYSSAIGPYKGGLRFHPSVNLSIMKFLAFEQIFKNSLTTLPMGGGKGGSDFDPKGKSDAEVMRFCQSFMTELQRHISYVQDVPAGDIGVGAREIGYLFGQYKRITKNYTGVLTPKGQEYGGSEIRPEATGYGAVLFVENVLKDKGESLKGKRCLVSGAGNVAQYCAELLLEKGAIVLSLSDSQGYVYEPNGFTREQLQAVQDMKKKNNSARISEYKSDTAVYVGDRRKPWELDCQVDIAFPCATQNEIDEHDAELLIKHGCQYVVEGANMPSTNEAIHKYNKAGIIYCPGKAANAGGVAVSGLEMTQNRMSLNWTREEVRDKLERIMKDIYDSAMGPSRRYNVDLAAGANIAGFTKVADAVKAQGAV
notes: endogenous in cells; host or cells: Chlorella sorokiniana (UTEX-1230; 3B2NA), cultured in 29 mM ammonium medium; enzyme purified from the cells
**Q.** For B2, which Km [8] is on record?
**A.** The Km was 0.04 mM.

**Q.** And the Km [9]?
**A.** Its Km is 38.2 mM.

**Q.** And the Km [10]?
**A.** The Km was 0.14 mM.
